Experimental data from the RNAGym collection of RNA variant scans (doi:10.7554/elife.80360).

B1: CPEB3 Ribozyme (parent)
chain: GGGGGCCACAGCAGAAGCGUUCACGUCGCGGCCCCUGUCAGAUUCUGGUGAAUCUGCGAAUUCUGCUGU

Variants of: B1
Experiment: self-cleavage, relative activity (ratio to wild type); higher = more cleavage; co-transcriptional

Going from GGGAGCCACAGCAGACGCGUUCACGUCGCGGCCCCUGUCAGAUUCUGGUGAAUCUGCGAAUUCUGCUGU [G4A A16C] to GGGAGCCACAGCAGAAGCGUUCACGUCGCGGCCCCUGUCAGAUUCUGGUGAAUUUGCGAAUUCUGCUGU [G4A C54U], the self-cleavage rises from 0.0992 to 0.776.

Compared with GGGAGCCACAGCAGAAGCGUUCACGUCGCGGCCCCUGUCAGAUUCUGGUGAAUAUGCGAAUUCUGCUGU [G4A C54A], GGGCGCCACAGCAGAAGCGUUCACGUCGCGGCCCCUGUCAGAUUCUGGUGAAUCUGCGCAUUCUGCUGU [G4C A59C] is lower in self-cleavage: 0.457 for the first, 0.187 for the second.

Compared with GGGAGCCACAGCAGAAGCGUUAACGUCGCGGCCCCUGUCAGAUUCUGGUGAAUCUGCGAAUUCUGCUGU [G4A C22A], GGGAGCCACAGCAGAAGCGUUCACGUCGCGGCCCCUGCCAGAUUCUGGUGAAUCUGCGAAUUCUGCUGU [G4A U38C] is higher in self-cleavage: 0.087 for the first, 0.699 for the second.

First: GGGCGCCACAGCCGAAGCGUUCACGUCGCGGCCCCUGUCAGAUUCUGGUGAAUCUGCGAAUUCUGCUGU [G4C A13C]
Second: GGGAGCCACAGCAGAAGCGUUCACGUCGCGGCCCCUGUCGGAUUCUGGUGAAUCUGCGAAUUCUGCUGU [G4A A40G]
The self-cleavage of the first is lower: 0.216 for the first, 0.773 for the second.

First: GGGAGCCACAGCAGAAGCGUUCACGUCGCGGCCCCUGUCUGAUUCUGGUGAAUCUGCGAAUUCUGCUGU [G4A A40U]
Second: GGGAGCCACAGCAGAAGCGUUCCCGUCGCGGCCCCUGUCAGAUUCUGGUGAAUCUGCGAAUUCUGCUGU [G4A A23C]
The self-cleavage of the first is lower: 0.48 for the first, 0.573 for the second.

Going from GGGCGCCACAGCAGAAGCGUUCACGUCGCGGCCCCUGUCAGAUUCUGGUGAUUCUGCGAAUUCUGCUGU [G4C A52U] to GGGAGCCACAGCAGAAGCGUUCACGUCGCGGCCCCUGUCAGAUUCUGGUGAAACUGCGAAUUCUGCUGU [G4A U53A], the self-cleavage falls from 0.603 to 0.602.

Compared with GGGAGCCACAGCAGAAGCGUUCACGUCGCGGCCCCUGUCAGAUUCUGGUGAAGCUGCGAAUUCUGCUGU [G4A U53G], GGGCGCCACCGCAGAAGCGUUCACGUCGCGGCCCCUGUCAGAUUCUGGUGAAUCUGCGAAUUCUGCUGU [G4C A10C] is higher in self-cleavage: 0.517 for the first, 0.844 for the second.

Compared with GGGCGCCACGGCAGAAGCGUUCACGUCGCGGCCCCUGUCAGAUUCUGGUGAAUCUGCGAAUUCUGCUGU [G4C A10G], GGGAGCCACAGCAGAAGCGUUCACGUCGCGGCCCCUGUCAGAUUCUGGUGAAUCCGCGAAUUCUGCUGU [G4A U55C] is lower in self-cleavage: 0.748 for the first, 0.351 for the second.

First: GGGAGCCACAGCAGAAGCGUUCACGUCGCGGCCCCUGUCAGAUUCUGGUGAAUCAGCGAAUUCUGCUGU [G4A U55A]
Second: GGGAGCCACAGCAGAAGCGUUCACGUCGCGGCCCCUGUCAGAUUCUGGUGAAUCUGCGAAUUCUGGUGU [G4A C66G]
The self-cleavage of the first is lower: 0.636 for the first, 0.799 for the second.

Compared with GGGAGCCACAGCAGAAGCGUUCACGACGCGGCCCCUGUCAGAUUCUGGUGAAUCUGCGAAUUCUGCUGU [G4A U26A], GGGAGCCACAGCAGAAGCGUUCACGGCGCGGCCCCUGUCAGAUUCUGGUGAAUCUGCGAAUUCUGCUGU [G4A U26G] is lower in self-cleavage: 0.604 for the first, 0.504 for the second.

First: GGGAGCCACAGCAGAAGCGUUCACGUCGCGGCCCCUGUCAGAUUCUGGUGAAUCUGCGAACUCUGCUGU [G4A U61C]
Second: GGGAGCCACAGCAGAAGCGUUCACGUCGCGGCCCUUGUCAGAUUCUGGUGAAUCUGCGAAUUCUGCUGU [G4A C35U]
The self-cleavage of the first is higher: 0.433 for the first, 0.244 for the second.

First: GGGAGCCACAGCAGAAGCGUUCACGUCGCGGCCCCUGUCAGAUUCUGCUGAAUCUGCGAAUUCUGCUGU [G4A G48C]
Second: GGGAGCCACAGCAGAAGCGUUCACGUCGCGGCCCCUGUCAGAUUCUGUUGAAUCUGCGAAUUCUGCUGU [G4A G48U]
The self-cleavage of the first is lower: 0.802 for the first, 0.919 for the second.

Compared with GGGAGCCACAGCAGAAGCGUUCACGUCGCGGCCCCUGUCAGAUUCUGGUGGAUCUGCGAAUUCUGCUGU [G4A A51G], GGGAGCCACAGCAGAAGCGUUCACGUCGCGGCCCCUGUCAGAUUCUGGUGCAUCUGCGAAUUCUGCUGU [G4A A51C] is lower in self-cleavage: 0.787 for the first, 0.702 for the second.

Compared with GGGAGCCACAGCAGAAGCGUUCACGUCGCGGCCCCUGUCAGAUUCUGGUGAAUCUGCGAAUACUGCUGU [G4A U62A], GGGAGCCACAGCAGAAGCGUUCACGUCGCGGCCCCUGUCAGAUUCUGGUGAAUCUGCGAAUGCUGCUGU [G4A U62G] is lower in self-cleavage: 0.601 for the first, 0.419 for the second.

Compared with GGGAGCCACAGCGGAAGCGUUCACGUCGCGGCCCCUGUCAGAUUCUGGUGAAUCUGCGAAUUCUGCUGU [G4A A13G], GGGCGCCACAGCAGAAGCGUUCACGUCGCGGCCCCUGUCAGAUUCUGGUGAAUCUGCGACUUCUGCUGU [G4C A60C] is lower in self-cleavage: 0.88 for the first, 0.188 for the second.

First: GGGAGCCACAGCAGAAGCGUUCACGUCGCGGCCCCUGUCAGAUUCUGGUGAAUCUGCGAAUUCUGCUCU [G4A G68C]
Second: GGGAGCCACAGCAGAAGCGUUCACGUCGCGGCCCCUGUCAGAUUCUGGUGAAUCUGCGAAUUCUGCUAU [G4A G68A]
The self-cleavage of the first is lower: 0.959 for the first, 0.999 for the second.

Going from GGGAGGCACAGCAGAAGCGUUCACGUCGCGGCCCCUGUCAGAUUCUGGUGAAUCUGCGAAUUCUGCUGU [G4A C6G] to GGGAGUCACAGCAGAAGCGUUCACGUCGCGGCCCCUGUCAGAUUCUGGUGAAUCUGCGAAUUCUGCUGU [G4A C6U], the self-cleavage rises from 0.07 to 0.426.

Compared with GGGAGCCACAGCAGAAGCGUUCACGUCGCGGGCCCUGUCAGAUUCUGGUGAAUCUGCGAAUUCUGCUGU [G4A C32G], GGGAGCCACAGCAGAAGCGUUCACGUCGCGGUCCCUGUCAGAUUCUGGUGAAUCUGCGAAUUCUGCUGU [G4A C32U] is higher in self-cleavage: 0.171 for the first, 0.495 for the second.

First: GGGAGCCACAGCAGAAGCGUUCACGUCGCGGCCCCUGUGAGAUUCUGGUGAAUCUGCGAAUUCUGCUGU [G4A C39G]
Second: GGGAGCCACAGCAGAAUCGUUCACGUCGCGGCCCCUGUCAGAUUCUGGUGAAUCUGCGAAUUCUGCUGU [G4A G17U]
The self-cleavage of the first is higher: 0.717 for the first, 0.145 for the second.

For GGGCGCCACAGCAGAAGCGUUCACGUCGCGGCCCCUGUCAGGUUCUGGUGAAUCUGCGAAUUCUGCUGU [G4C A42G], the self-cleavage was 0.667.
